Experimental findings from patent publication US20220275095A1 (SURROZEN OPERATING, published 2022) are described below.

The KD is the concentration at which binding is half-saturated.

The target in experiment [1] is T1, human Fzd2 hinge region (human, UniProt Q14332 150-201).
T1 construct: also called hFzd2L; 2L
Kind of experiment: phage ELISA. (In general: An ELISA detects its analyte on a solid surface through an enzyme-linked reagent.)

The target in experiment [2] is T2, mouse Fzd1 hinge region (mouse, UniProt O70421 222-271, limits assumed).
T2 construct: domain: hinge region; also called mFzd1L
T2 peptide (looked up): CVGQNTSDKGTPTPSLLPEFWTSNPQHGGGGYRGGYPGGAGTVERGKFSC
Kind of experiment: SPR; **** = 10 nM > KD. The procedure: (§1) Certain VL and VH clones from Table 1 were PCR amplified from the phage clone and sub-cloned into pcDNA3.1 based mammalian expression vectors (Invitrogen/ThermoFisher) of human kappa or lambda light chain and human IgG1 heavy chain, respectively. Candidate IgGs were purified using Protein A affinity resin. The candidate library was captured on an anti-FC lawn. The capture lawn was prepared by direct amine coupling goat anti-human IgG Fc (Southern Biotech #2048-01) at 8000 RU on a HC200M Carterra sensor chip (Carterra 4297). Capture levels were at least 600 RU for each candidate IgG. Binding to all target peptides was measured at 25° by injecting a concentration series of each peptide in 1×PBST+0.5 mg/mL BSA (TEKnova P1192, VWR V0332). All peptides were injected at 4.12 nM, 12.3 nM, 37 nM, 111 nM, 333 nM, and 1000 nM. Two blank injections were run between each peptide concentration series. Each injection started with a one minute baseline determination, followed by a five minute association phase where peptides were injected, and finished with a 10 minute dissociation phase. Binding data was analyzed using NextGenKIT (Carterra). Blank injections and reference locations were subtracted from all runs prior to fitting a 1:1 binding model to the data. […] Interactions with an Rₘₐₓ less than 15 RU or weaker than 5 μM were considered non-binders.
(SPR reads the build-up and loss of mass on a sensor chip optically.)

In experiment [3] the target is T3, human Fzd1 hinge region (human).
T3 construct: also called hFzd1L
T3 peptide: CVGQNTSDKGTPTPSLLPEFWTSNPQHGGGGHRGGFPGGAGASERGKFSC
Kind of experiment: SPR; **** = 10 nM > KD. The procedure: as §1

Experiment [4] concerns the target T4, human Fzd3 hinge region (human).
T4 construct: also called hFzd3L
T4 peptide: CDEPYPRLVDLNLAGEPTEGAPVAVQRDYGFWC
Kind of experiment: SPR. The procedure: as §1

Experiment [5] has as its target T5, mouse Fzd9 hinge region (mouse, UniProt Q9R216 153-197, limits assumed).
T5 construct: domain: hinge region; also called mFzd9
T5 peptide (looked up): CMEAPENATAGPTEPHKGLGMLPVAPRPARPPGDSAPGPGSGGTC
Kind of experiment: SPR. The procedure: as §1

The target in experiment [6] is T6, human Fzd5 hinge region (human).
T6 construct: also called hFzd5L
T6 peptide: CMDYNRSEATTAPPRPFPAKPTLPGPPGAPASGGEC
As to the kind of experiment: SPR. The procedure: as §1

For experiment [7], the target named is T7, mouse Fzd3 hinge region (mouse, UniProt Q61086 133-165, limits assumed).
T7 construct: domain: hinge region; also called mFzd3L
T7 peptide (looked up): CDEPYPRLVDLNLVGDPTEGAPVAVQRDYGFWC
Kind of experiment: SPR. On the procedure:
as §1

Experiment [8] has as its target T8, human Fzd9 hinge region (human).
T8 construct: also called hFzd9L; hFzd9
T8 peptide: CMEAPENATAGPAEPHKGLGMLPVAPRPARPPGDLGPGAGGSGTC
Kind of experiment: SPR. The procedure: as §1

Experiment [9] addresses T9, mouse Fzd5 hinge region (mouse, UniProt Q9EQD0 147-182, limits assumed).
T9 construct: domain: hinge region; also called mFzd5L
T9 peptide (looked up): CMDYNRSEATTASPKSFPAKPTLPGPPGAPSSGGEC
As to the kind of experiment: SPR. The procedure: as §1

For experiment [10], the target named is T10, mouse Fzd2 hinge region (mouse, UniProt Q9JIP6 155-206, limits assumed).
T10 construct: domain: hinge region; also called mFzd2L
Kind of experiment: SPR. The procedure: as §1

Experiment [11] addresses T11, human Fzd6 hinge region (human).
T11 construct: also called hFzd6L
T11 peptide: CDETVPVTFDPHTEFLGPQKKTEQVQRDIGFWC
As to the kind of experiment: SPR. On the procedure: as §1

For experiment [12], the target named is T12, mouse Fzd7 hinge region (mouse, UniProt Q61090 160-208, limits assumed).
T12 construct: domain: hinge region; also called mFzd7L
T12 peptide (looked up): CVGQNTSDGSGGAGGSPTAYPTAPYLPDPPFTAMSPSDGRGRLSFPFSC
As to the kind of experiment: SPR. The procedure:
as §1

The target in experiment [13] is T13, mouse Fzd6 hinge region (mouse, UniProt Q61089 129-161, limits assumed).
T13 construct: domain: hinge region; also called mFzd6L
T13 peptide (looked up): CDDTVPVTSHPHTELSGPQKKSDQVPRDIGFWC
As to the kind of experiment: SPR. The procedure: as §1

Experiment [14] concerns the target T14, human Fzd2 hinge region (human).
T14 construct: also called hFzd2L
T14 peptide: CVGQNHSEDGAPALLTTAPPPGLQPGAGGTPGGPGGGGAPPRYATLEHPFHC
As to the kind of experiment: SPR. The procedure:
as §1

The target of experiment [15] is T15, human Fzd4 hinge region (human).
T15 construct: also called hFzd4L
T15 peptide: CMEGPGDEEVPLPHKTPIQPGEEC
Kind of experiment: SPR. The procedure: as §1

The target of experiment [16] is T16, mouse Fzd10 hinge region (mouse, UniProt Q8BKG4 148-193, limits assumed).
T16 construct: domain: hinge region; also called mFzd10L
T16 peptide (looked up): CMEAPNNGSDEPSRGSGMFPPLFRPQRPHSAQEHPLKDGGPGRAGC
As to the kind of experiment: SPR. On the procedure: as §1

In experiment [17] the target is T17, mouse Fzd8 hinge region (mouse, UniProt Q61091 148-225, limits assumed).
T17 construct: domain: hinge region; also called mFzd8L; mFzd8
T17 sequence (peptide, looked up): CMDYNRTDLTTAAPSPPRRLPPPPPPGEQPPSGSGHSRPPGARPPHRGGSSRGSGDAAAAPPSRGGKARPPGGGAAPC
Kind of experiment: SPR. The procedure: as §1

Experiment [18] addresses T18, human Fzd10 hinge region (human).
T18 construct: also called hFzd10L
T18 peptide: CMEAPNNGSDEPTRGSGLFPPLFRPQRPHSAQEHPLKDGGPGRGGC
Kind of experiment: SPR. The procedure:
as §1

Experiment [19] has as its target T19, mouse Fzd4 hinge region (mouse, UniProt Q61088 158-181, limits assumed).
T19 construct: domain: hinge region; also called mFzd4L
T19 peptide (looked up): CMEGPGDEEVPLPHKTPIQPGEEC
As to the kind of experiment: SPR. The procedure:
as §1

B1: 031S-B02 (antibody, V domains shown)
VH: EVQLLESGGGLVQPGGSLRLSCAASGFTFSSYWMSWVRQAPGKGLEWVSAIGGSGANAYYADSVKGRFTISRDNSKNTLYLQMNSLRAEDTAVYYCVRDTNWAFDLWGQGTMVTVSS
VL: EIVMTQSPATLSVSPGERATLSCRASQSVSGSYLAWYQQKPGQAPRLLIYGASTRATGIPARFSGSGSGTEFTLTISSLQSEDFAVYYCQQYGSSPLTFGQGTKVEIK
notes: also called 31SB2
B1: in experiment [1], the binding result is recorded as “binds”.

B2: 033S-B03 (antibody, V domains shown)
VH: QVQLVQSGAEVKKPGSSVKVSCKASGYTFTGQYMHWVRQAPGQGLEWMGGIIPIFGTAHYPQKFQGRVTITADESTSTAYMELSSLRSEDTAVYYCARRSVAAGTPFTDYWGQGTLVTVSS
VL: not shown
notes: human IgG1, human kappa or lambda light chain; also called 33SB3
For the molecule B2, the KD in [2] and in experiment [3] was below 10 nM throughout. The binding result in [4], in experiment [5], in experiment [6], in experiment [7], in [8] and in [9] was “no binding (tested: 5 uM)” throughout. In addition, the binding result in [10], in experiment [11], in experiment [12], in experiment [13], in experiment [14] and in [15] was “no binding (tested: 5 uM)” each time. Also, the binding result in experiment [16], in experiment [17], in [18] and in experiment [19] was “no binding (tested: 5 uM)” each time.
